Data published in US20160289284.

Tested on: ZF6-DBD (AAV8-CMV delivered) (artificial (designed))
Assay: cell_activity
Conditions: pig retina, rhodopsin transcript by qRT-PCR, 15 days after AAV8 injection

Work on “porcine RHO proximal promoter / TSS region” yielded an activity of 45 % repression.
